# Paper PMC2137827
# Several values for one entry are separate records, joined by “and”; a condition that tells them apart may be missing. Identical values can stand only once. Like-named read-outs stand apart in the source and are kept apart here.
# Columns and labels:
# [1] = target: IQGAP1 (native, from bovine adrenal) (bovine (endogenous in adrenal)); assay: co-purification with quantitative immunoblot
# [2] = target: IQGAP1 (native, from bovine adrenal) (bovine (endogenous in adrenal)); assay: co-purification with quantitative immunoblot; remark: listed apart in the source
# [3] = target: IQGAP1 (native, from bovine adrenal) (bovine (endogenous in adrenal)); assay: AUC
# [4] = target: F-actin assembled from purified rabbit skeletal muscle actin (rabbit) (UniProt P68135); assay: co-sedimentation
stoichiometry N (mol calmodulin per mol 190K) [1],stoichiometry N (mol calmodulin per mol 190K) [2],stoichiometry N (subunits per molecule) [3],percent of IQGAP1 able to bind F-actin (other experiments) [4],Substance
0.067 and 0.042 and 0.026,0.05,,,Calmodulin co-purifying with native IQGAP1 from bovine adrenal (from UniProt P62157 1-149) (natural protein)
,,2,85%,"IQGAP1 (native, from bovine adrenal) (natural protein)"
